Data reported in the supplement of paper PMC10126150.
± gives the standard deviation of the averaged measurements.

system: ATP; test: switch fluorescence ratio, 500 uM ATP over buffer (Cy3 cluster intensity, sum of 5 cycles each) (fold (ratio)); higher = stronger signal-on switching upon ATP binding; sequences stand for … in TCGTCGGCAGCGTCAGATGTGTATAAGAGACAGTTTTTTTTTTTTTTTTTTTTTTTTT…TC; settings: aptamer strand: ATP DNA aptamer (quencher-CACCTGGGGGAGTATTGCGGAGGAAGG + anchor), 100 nM annealed; ATP concentration: 500 uM
How it was run: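 Per cluster, summed Cy3 intensity from the target cycles was divided by that from the buffer cycles to give the fluorescence ratio, then averaged per switch-domain sequence. Clusters outside 100-1000 RFU were excluded. The Cy3-labelled switching-strand clusters, on a modified Illumina MiSeq flow-cell, were annealed to 100 nM quencher-labelled ATP aptamer and imaged in selection buffer, then after 15 min with 500 uM ATP at 22 °C, for five cycles with NaOH stripping and re-annealing between them.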
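Further: ATP exposure 15 min at 22 °C before imaging.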

Row | Sequence | switch fluorescence ratio
1 | TCGAGTATGT | 0.983 ± 0.012
2 | AGGGTAATGG | 1.03 ± 0.021
3 | AGACTTCAGC | 1.04 ± 0.022
4 | TGGATATTTG | 0.983 ± 0.065
5 | TATCTACGGG | 1.036 ± 0.0013
6 | TGATGCAAGA | 1.3 ± 0.063
7 | GCTGGGGGGG | 1.02 ± 0.037
8 | TTGCGGGGTT | 1.14 ± 0.15
9 | AGGTAGGACT | 1 ± 0.014
10 | CTTTAGTCAG | 1.01 ± 0.016
11 | ACTTATTTGC | 1.16 ± 0.17
12 | AGAGAAGAT | 0.988 ± 0.026
13 | AGATGGCTAG | 0.999 ± 0.018
14 | CGTATGGGGC | 0.948 ± 0.087
15 | TACAGGTTGG | 1.03 ± 0.037
16 | TTGTTTCGTT | 0.9804 ± 0.0073
17 | AACGGCCGTG | 1.02 ± 0.046
18 | CTTGGAGGGG | 1.0187 ± 0.00015
19 | AGTCGAAATG | 0.989 ± 0.028
20 | ACGATAATCG | 0.996 ± 0.008
21 | ATATTGTGAC | 1.032 ± 0.004
22 | AGAGAGCTTT | 1.01 ± 0.021
23 | ATAATATTTT | 1.031 ± 0.0028

Row | Sequence | switch fluorescence ratio
24 | TCAATCTCCT | 1.03 ± 0.088
25 | TCTTTATATT | 1.02 ± 0.048
26 | TTTACGATTA | 1.14 ± 0.067
27 | GAGAAAATTT | 0.989 ± 0.043
28 | TTATATTTTG | 0.998 ± 0.017
29 | GCCTTGATGG | 1.01 ± 0.021
30 | GGGTGAGGGA | 1.01 ± 0.035
31 | CGTAGACGGT | 0.9592 ± 0.0063
32 | TAAAAATCCC | 1.16 ± 0.083
33 | TGCATATATA | 1.29 ± 0.36
34 | AAAGTATATA | 1.02 ± 0.04
35 | TCTTGATTGT | 0.974 ± 0.017
36 | CCACTGGGCA | 1.02 ± 0.042
37 | GGGGGCCATC | 1.003 ± 0.0017
38 | GTGGATTGGC | 0.982 ± 0.035
39 | ACATCGTGTT | 0.977 ± 0.033
40 | CTCAGGTGGC | 1.04 ± 0.053
41 | ACGATCAGCA | 1.05 ± 0.047
42 | AAAATTGTCT | 0.981 ± 0.023
43 | GTTATTGCGA | 0.997 ± 0.019
44 | GGGGATCCAT | 1.02 ± 0.026
45 | AGGACGTTGG | 0.963 ± 0.034
46 | GGGTAGCTCG | 0.987 ± 0.031

Row | Sequence | switch fluorescence ratio
47 | ATCCTAGTTT | 1.016 ± 0.00087
48 | TATATGGGTT | 0.9849 ± 0.0062
49 | CTGAGTCGTG | 1 ± 0.066
50 | AAGTCATTTT | 1.026 ± 0.0017
51 | CAGGGAATTG | 0.989 ± 0.075
52 | AAATTATGCG | 0.99 ± 0.023
53 | CAGTTGAACT | 1.0209 ± 0.00023
54 | AGCTGACTAT | 1.06 ± 0.11
55 | CTGGGGACCT | 1.1 ± 0.066
56 | GCAGTAAGTT | 0.978 ± 0.061
57 | CGGAGTTTTG | 1.01 ± 0.027
58 | GGGGCTAAGC | 1 ± 0.026
59 | TTCCGCACGT | 2.64 ± 1.3
60 | TCGCGGAGGG | 0.981 ± 0.019
61 | TCAGTTTGAG | 0.97806 ± 0.0007
62 | GCAGCATCTG | 1.01 ± 0.024
63 | GGTCATTTGT | 1 ± 0.041
64 | AACGTGGCGA | 1.03 ± 0.047
65 | TTCAACTTAT | 0.954 ± 0.049
66 | TGCGCCCGGC | 1.031 ± 0.0027
67 | TTTAAAATTT | 1.01 ± 0.041
68 | ATCCGCTAGT | 2.16 ± 0.19
69 | TTTTTAAGCA | 1.02 ± 0.034

Row | Sequence | switch fluorescence ratio
70 | TAACAAATAG | 0.9741 ± 0.0062
71 | GAGTGTCGCC | 0.99 ± 0.021
72 | CGTTCAGTGG | 1.031 ± 0.0083
73 | TAAGCATAAG | 1.01 ± 0.027
74 | CTTTTAGTAG | 0.974 ± 0.015
75 | AATTTAAATG | 0.977 ± 0.03
76 | AGAGATTGTT | 0.94745 ± 0.00025
77 | ACGAGGGATG | 1.01 ± 0.029
78 | ACACACCAGG | 2.98 ± 0.18
79 | GGGCCAGGTA | 0.985 ± 0.015
80 | CGGTTGAGGT | 0.999 ± 0.047
81 | AAGTTGTATG | 0.9787 ± 0.0025
82 | CGTCGCGGGC | 1.0404 ± 0.00051
83 | GGGGGGCGTT | 0.998 ± 0.017
84 | AGTCCGGGAG | 1.02 ± 0.026
85 | AAACGCAAAG | 1.27 ± 0.3
86 | GGTATGGTGG | 1.01 ± 0.036
87 | CGGCGTGTTT | 1.052 ± 0.0087
88 | GGGTCTGCAC | 0.997 ± 0.013
89 | TCATATTATC | 1 ± 0.029
90 | GGAGACGGGA | 1.06 ± 0.016
91 | CTTGATTTGT | 1.01 ± 0.036
92 | ATCAGGCGTA | 0.975 ± 0.038

Row | Sequence | switch fluorescence ratio
93 | TTGATCAGGG | 0.989 ± 0.042
94 | CGGTCTGTGG | 0.995 ± 0.021
95 | ATGCACGAAG | 1 ± 0.057
96 | GCTGGTTGA | 1.01 ± 0.014
97 | TAGGTTCGAC | 0.972 ± 0.031
98 | AGGCGCGGTG | 1.03 ± 0.0079
99 | TTAGATCTGC | 1.02 ± 0.083
100 | GGGCCTGGGA | 1.01 ± 0.012
101 | GCTGAGGCTG | 1 ± 0.032
102 | GGTGTGGCGT | 1 ± 0.018
103 | TAGCGCCCCG | 0.987 ± 0.016
104 | TGTGGGTCAT | 0.9762 ± 0.0021
105 | GAAATACTTT | 1.03 ± 0.014
106 | CCGTGTGTCA | 1.03 ± 0.029
107 | AGTGCGGGTG | 1.13 ± 0.028
108 | CAGTCTGCTG | 1.0037 ± 0.00071
109 | ATTTGAATGG | 0.987 ± 0.027
110 | ACAACGGGTG | 2.1 ± 0.24
111 | CAGATAAGGA | 1.01 ± 0.026
112 | GCGGGTAGCA | 1.04 ± 0.029
113 | TTTAGATGAG | 0.986 ± 0.053
114 | CGGTCAACAC | 1.66 ± 0.15
115 | TCAACTGGAT | 0.9502 ± 0.0053

Row | Sequence | switch fluorescence ratio
116 | TGGGTGTTAA | 0.974 ± 0.055
117 | CTGGGGGTAA | 0.992 ± 0.02
118 | TAGGACGGGT | 0.9932 ± 0.0054
119 | GGGTAGCCTG | 0.982 ± 0.02
120 | AGGTCGGCAT | 0.997 ± 0.02
121 | CAGGGGGGTC | 1.022 ± 0.0065
122 | ACGAGGTGGG | 0.987 ± 0.017
123 | TCGGTAAATG | 1.04 ± 0.018
124 | CTAGTACGGG | 1.04 ± 0.031
125 | AGTTTTCATT | 1 ± 0.049
126 | AAAGCTCACC | 1.12 ± 0.026
127 | ACTTTTTATG | 0.991 ± 0.035
128 | GGGAGTTGAA | 0.9747 ± 0.0083
129 | ACAAGATTGG | 1.01 ± 0.041
130 | ATTTGTAATC | 1.22 ± 0.31
131 | TCTGAGGTGC | 1.06 ± 0.046
132 | AAACGAGGAG | 1 ± 0.013
133 | CAGAGGGGTA | 1.01 ± 0.03
134 | AAAGGAAGGT | 1.01 ± 0.024
135 | TTTTTTATGT | 0.995 ± 0.029
136 | CAGGTCGACT | 0.972 ± 0.03
137 | CGGGTGGCCT | 1 ± 0.02
138 | TCGTAAAGTT | 0.955 ± 0.02

Row | Sequence | switch fluorescence ratio
139 | GGTGGGGCGC | 1.01 ± 0.035
140 | CGCTTTGATA | 0.991 ± 0.03
141 | TATTTAGGGG | 0.973 ± 0.022
142 | GACGATGACG | 0.987 ± 0.014
143 | TAGATTGAAA | 0.986 ± 0.028
144 | CGTCCGGGGT | 1.48 ± 0.62
145 | GTACCCTATG | 1.07 ± 0.029
146 | GTTGCGGGCG | 0.991 ± 0.06
147 | ACTTTGACAT | 1.072 ± 0.0092
148 | TTTGTTGCTG | 1.03 ± 0.039
149 | TACCATTAGT | 1.041 ± 0.0085
150 | ATCCTAAATT | 1.02 ± 0.0024
151 | TTTGATCGTT | 1.01 ± 0.011
152 | AGTCTTAAGG | 0.9459 ± 0.003
153 | AGCATGAACT | 1.07 ± 0.044
154 | TAGGCTTATG | 0.9786 ± 0.0037
155 | CATTAGAGAC | 1.03 ± 0.012
156 | GAGTTTGAAA | 0.993 ± 0.041
157 | GGGCTCATTT | 1.01 ± 0.021
